Where a chain is given by its changes, count along the chain named.
B1: 16(VR11834) (antibody, from another filing, V domains shown)
VH: EVQLVESGGGLVKPGGSLKLSCAASGFTFSNYAMSWVRQTPEKRLEWVAAINSNGGSAYYPDTVKDRFTISRDNAKNTLYLQMSSLRSEDTALYYCARRFYYDYGWFAYWGQGTLVTVSS
VL: DIVLTQSPASLSASVGETVTITCRASENIDSYLAWYQQKQGKSPQLLVYAATLLADGVPSRFSGSGSGTQYSLKINSLQSEDVARYYCQHYYSSPWTFGGGTKLEIK
B2: 116(VR12117) (antibody, from another filing, V domains shown)
VH: QSVEESGGRLVTPGTPLTLTCTVSGFSLSNYAMSWVRQAPGKGLEWIGIIYTTGFTYYASWVKGRFTISKTSTTVDLKITSPTTEDTATYFCARGLATYVSPPTRLDLWGQGTLVTVSS
VL: AQVLTQTPSPVSAAVGGTVTINCQASQSIYNSKNLAWYQQKPGQPPKLLIYSASTLASGVPSRFKGSGSGTQFTLTISDLECDDAATYYCQGEFSCSSVDCATFGGGTEVVVK
B3: 110(VR12112) (antibody, from another filing, V domains shown)
VH: QSVEESGGRLVTPGTPLTLTCTVSGFSLSSYAMIWVRQAPGKGLEWIGIINSSDNTHYATWAKGRFTISKTSTTVDLKITSPTTEDTATYFCARDPYDYGYGWYFDLWGPGTLVTVSS
VL: AQVLTQTPSPVSAAVGGTVTINCQASQSVFNNKNLAWYQQKPGQPPKLLIYKASTLASGVSSRFKGSGSGTQFALTISGVQCDDAATYYCQGEFSCSSTDCVTFGGGTEVVVK
B4: 111(VR12113) (antibody, from another filing, V domains shown)
VH: QSVEESGGRLVTPGTPLTLTCTASGFSLSTYAMSWVRQAPGKGLEWIGIISSSGSTYYASWAKGRFTISKTSTTVDLKITSPTTEDTATYFCARETWYWLDLWGQGTLVTVSS
VL: AVEMTQTPASVSAAVGGTVTINCQASEDIYSNLAWYQQKPGQPPKLLIYGASTLASGVPSRFKGSGSGTEYTLTISGVQCDDAATYYCQCAYDSSSYGTPFGGGTEVVVK
B5: 77A(VR11851) (antibody, V domains shown)
VH: QSVEESGGRLVTPGTPLTLTCTVSGFSLSSYAMSWVRQAPGKGLEWIGIISSSGTTYYASWAKGRFTISKTSTTVDLKITSPTTEDTATYFCARVDYYSSGWGGLWGPGTLVTVSS
VL: B4 VL with V11M, N22K, A91T, S94T, T99N, P100T, V107M, K110E

Assays:
[1] = target: 人类CD1a池B蛋白 (human CD1a pool B protein, recombinant) (human) (UniProt P06126); assay: SPR (Biacore T200), antibody captured, human CD1a titrated, heterogeneous ligand model
[2] = target: 人类CD1a池B蛋白 (human CD1a pool B protein, recombinant) (human) (UniProt P06126); assay: SPR (Biacore T200), antibody captured, human CD1a titrated, 1:1 model
[3] = target: T1, 人类CD1a池B蛋白 (human CD1a pool B protein, recombinant) (human, UniProt P06126 17-300, limits assumed); assay: as above
T1 construct: Recombinant protein used in ELISA, Biacore and on beads; also called 人类CD1a蛋白; CD1a包被珠 (on beads)
T1 sequence (P06126 17-300 limits assumed): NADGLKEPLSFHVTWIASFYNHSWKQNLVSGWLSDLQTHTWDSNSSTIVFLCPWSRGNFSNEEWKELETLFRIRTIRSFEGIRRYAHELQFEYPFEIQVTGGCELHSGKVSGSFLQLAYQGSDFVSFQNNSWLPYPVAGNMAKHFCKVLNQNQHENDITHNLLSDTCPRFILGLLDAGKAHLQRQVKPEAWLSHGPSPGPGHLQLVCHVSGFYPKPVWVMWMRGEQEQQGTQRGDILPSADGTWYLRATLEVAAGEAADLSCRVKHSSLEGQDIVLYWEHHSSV

[4] = target: T1, 人类CD1a池B蛋白 (human CD1a pool B protein, …); assay: SPR (Biacore T200), antibody captured on anti-species F(ab')2, human CD1a titrated 0-50 nM, 1:1 model

Kd [2] [nM]	koff [2] [s⁻¹]	kon [2] [M⁻¹ s⁻¹]	other results	Binder
–	–	–	Kd [1]: 0.392 nM; ka 2 [1]: 514000 M⁻¹ s⁻¹; kd 2 [1]: 0.00658 s⁻¹; koff [1]: 0.000729 s⁻¹; kon [1]: 1.86e+06 M⁻¹ s⁻¹	B1
2.89	0.0014	483000	–	B2
1.97	0.000874	443000	–	B3
0.0312	1.47e-08	321000	–	B4
–	–	–	Kd [3]: 0.24 nM; koff [3]: 0.000113 s⁻¹; kon [4]: 469000 M⁻¹ s⁻¹	B5

Reference: patent publication CN117651715A (UNIV OXFORD INNOVATION LTD, dated 2024)
